In this test the target is MmRIPK3 (S02-H303) kinase domain, N-terminal histidine tag (mouse). Nature of the test: SEC.

Here are results for one substance from paper PMC6310155.

What is called stoichiometry N is a count of units in the complex or per binding partner.

“MmRIPK3 (S02-H303) kinase domain, N-terminal histidine tag (domain or fragment)” came in with a stoichiometry N of 2.
